Data: the supplement of paper PMC10567573
± gives the standard deviation.

Experiment: protein stability index of a GFP-peptide fusion (GPS, HEK-293T) (PSI 1-6); higher = more stable
[1] = treatment: DMSO, c terminus: a fixed tail appended
[2] = treatment: MLN4924 1 uM, 8 h, c terminus: a fixed tail appended
[3] = treatment: DMSO, c terminus: native
[4] = treatment: MLN4924 1 uM, 8 h, c terminus: native
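Also: 24-mer peptide tiles fused after GFP, lentivirally expressed, FACS-sorted into six equal bins by GFP/DsRed ratio, decoded by Illumina sequencing, PSI is the read-weighted mean bin number.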

Row | Sequence | protein stability index [1] | protein stability index [2] | protein stability index [3] | protein stability index [4]
1 | GRPSMVWLSANPCPHCGDRTFYDP [PRAME] | 2.24 ± 0.26 | 2.33 ± 0.41 |  | 
2 | DCMAALGLAYDRKKVSKAAILARI [SCD] | 1.94 ± 0.3 | 2.29 ± 0.2 |  | 
3 | ITAFYNEARARARANRGILQQERQ [DNAJC4] | 3.4 ± 0.5 | 3.81 ± 0.36 |  | 
4 | VSNTYVKQKTSAALSTMGTLICRK [TPD52L3] | 3.41 ± 0.55 | 2.98 ± 0.41 |  | 
5 | APGRPGHPSGHWATCRLCGEQVGR [ZBED3] | 2.331 ± 0.015 | 2.81 ± 0.41 |  | 
6 | KYREAARLEINVLKKIKEKDKENK [CLK3] | 4.45 ± 0.18 | 4.25 ± 0.41 |  | 
7 | MADCILVNSQFTAAVFKETFKSLS [ALG2] | 2.66 ± 0.42 | 2.73 ± 0.55 |  | 
8 | AKGHVKLSDFGLCTGLKKAHRTEF [STK38L] | 2.75 ± 0.21 | 2.61 ± 0.15 |  | 
9 | ALSGVGGIRLPNGKLKCDICGIIC [IKZF1] | 1.96 ± 0.26 | 2.1 ± 0.34 |  | 
10 | IAATELEKEESRREAEKQNYLAEH [TNNI2] | 5.3 ± 0.25 | 5.37 ± 0.26 |  | 
11 | LGRFNDINVPIRLECVKFASHCLM [PDS5B] | 2.83 ± 1.6 | 2.41 ± 0.94 |  | 
12 | ALENLQVEASCSVCLEYLKEPVII [TRIM39] | 2.77 ± 1 | 2.95 ± 0.58 |  | 
13 | TLNIKETDSKELSMAKEVIAKELS [ZBED1] | 3.87 ± 0.086 | 4.13 ± 0.12 |  | 
14 | LNVQKTVDYTGQAKAQVRKAVQYE [STX11] | 3.99 ± 0.11 | 4.09 ± 0.19 |  | 
15 | YRWQGRRWEPSGKAEPRLPDRVYI [TBX6] | 2.11 ± 0.26 | 2.22 ± 0.37 |  | 
16 | IHGLPTEGYQALYHAVVEPMLWNP [C22orf31] | 2.19 ± 0.11 | 2.13 ± 0.21 |  | 
17 | PITAHAEVEVVEEAKCCCFFKRKR [CSNK1G1] | 2.96 ± 0.73 | 3.23 ± 1.2 |  | 
18 | PWLWSEQQVCQWLLWATNEFSLVN [ETS2] | 2.76 ± 0.47 | 2.42 ± 0.46 |  | 
19 | RDNSPFDGPGGNLAHAFQPGPGIG [MMP1] | 4.05 ± 0.39 | 4.03 ± 0.17 |  | 
20 | DREQVSSYNITVTATDGGSPPLST [PCDHGA10] | 4.54 ± 0.24 | 4.74 ± 0.14 |  | 
21 | WNILKTIALGQMLSLCICGTAITS [SLC35F2] | 3.03 ± 0.37 | 3.03 ± 0.71 |  | 
22 | EELTREAVAVDVAVPKRLLEIVGR [HAGHL] | 3.85 ± 0.17 | 3.91 ± 0.38 |  | 
23 | ECVWNGSDSVIMTGSYNNFFRMFD [PPP2R2B] | 2.23 ± 0.34 | 2.27 ± 0.39 |  | 

Row | Sequence | protein stability index [1] | protein stability index [2] | protein stability index [3] | protein stability index [4]
24 | TGLVGLFVDFFVRLFTQLKFGVVQ [CLCN6] | 2.36 ± 0.36 | 2.54 ± 0.22 |  | 
25 | VTTTSSASVTTTSNASGRRTSDVR [KRT13] | 5.07 ± 0.15 | 5.24 ± 0.15 |  | 
26 | SEAKADKILAEAAKLVPMGFTTAT [RAD51] | 3.93 ± 0.25 | 3.93 ± 0.13 |  | 
27 | CAMEDHNCEQLCVNVPGSFVCQCY [MATN2] | 2.5 ± 0.35 | 2.48 ± 0.39 |  | 
28 | GYTFGQDISETFNHANGLTLVSRA [PPP2CA] | 3.26 ± 0.3 | 3.19 ± 0.28 |  | 
29 | FPYEYSYGLQGGMAFLDKRLQVKE [ATL3] | 2.53 ± 0.1 | 2.69 ± 0.12 |  | 
30 | NLSEFQHVISRSPDFASSFKIVL [CIB1] |  |  | 2.29 ± 0.45 | 2.32 ± 0.44
31 | GVIQSVIGWKTVRMYPFQIHSIAL [CDS2] | 2.81 ± 0.34 | 2.94 ± 0.35 |  | 
32 | EKGLPLRKTHVLLGRSHDTVQEAA [MFSD9] | 4.22 ± 0.23 | 4.15 ± 0.34 |  | 
33 | NQSRCEMKTFVSPEAISPDLVKKI [TRIM15] | 3.98 ± 0.3 | 4.14 ± 0.37 |  | 
34 | MNLMNELKQNFSKSWHDMQTTTAY [TPD52L1] | 2.62 ± 0.34 | 2.47 ± 0.15 |  | 
35 | SPSVPCIFCEEHFPVAEQDKLLKH [ZNF277] | 4.16 ± 0.24 | 4.37 ± 0.084 |  | 
36 | SSSRPISPGLSYASHTVGFTPPTS [CCDC6] | 3.54 ± 0.22 | 3.74 ± 0.15 |  | 
37 | PSVCSENIHPQVLLPDQARGEVPW [ZNF263] | 4.19 ± 0.22 | 4.34 ± 0.37 |  | 
38 | TWALYNLVSVYPDKYCPLLIKEGG [ZER1] | 2.62 ± 0.99 | 2.26 ± 0.34 |  | 
39 | KRDLLGALKYWKKAMNMRYSDRTN [FEM1C] | 1.95 ± 0.25 | 2.27 ± 0.33 |  | 
40 | LTLVLVASVLLQAVLYPRFMGTIS [CD207] | 2.99 ± 0.28 | 3.25 ± 0.45 |  | 
41 | MHMVDLMSSIICEGDTVSQELLDT [PDS5B] | 3.6 ± 0.31 | 3.57 ± 0.14 |  | 
42 | LEGQDAKMIGFPSSAGSVSPRSTS [KRT13] | 5.18 ± 0.16 | 5.152 ± 0.026 |  | 
43 | RDLINCCYVSRRLSQLSSHDPLWR [FBXO3] | 2.09 ± 0.28 | 2.31 ± 0.29 |  | 
44 | LGTENLHLIFSYSVWVLRDFPEDG [VPS39] | 2.94 ± 0.46 | 2.74 ± 0.7 |  | 
45 | ISLRVYRKVLQAVHRGDGANPFQA [RTN2] | 2.59 ± 0.46 | 2.2 ± 0.32 |  | 
46 | GLQVEGLRRRLEELQQELSLKDQE [LRRC45] | 4.47 ± 0.17 | 4.73 ± 0.16 |  | 

Row | Sequence | protein stability index [1] | protein stability index [2] | protein stability index [3] | protein stability index [4]
47 | GAVYADSGNFERCIRLWKYALDMQ [FEM1A] | 2.38 ± 0.14 | 2.24 ± 0.38 |  | 
48 | VAWHPVRPIIASISSGVVSIWAQN [RBBP5] | 2.48 ± 0.48 | 2.5 ± 0.39 |  | 
49 | GLLETEPLQGTDEDAVASADFSSM [TPD52L1] | 5.34 ± 0.3 | 5.29 ± 0.37 |  | 
50 | TSPECASPQFEGPLSPPPINYNGI [NEUROD6] | 4.07 ± 0.15 | 3.91 ± 0.3 |  | 
51 | SDENGGTYVSPPGNEEEESKIFTT [DDIT3] | 5.53 ± 0.36 | 5.49 ± 0.31 |  | 
52 | DAWSGSNAYHIERLMSFRPICSAN [CRYBA1] | 2.46 ± 0.26 | 2.55 ± 0.26 |  | 
53 | GRASRFLQSISWDPEDFEDAWKRP [TLE6] | 3.15 ± 0.21 | 3.13 ± 0.31 |  | 
54 | GGPPAGPGGVYAGPEPPPVYTNLS [JUNB] | 4.15 ± 0.12 | 4.56 ± 0.099 |  | 
55 | QPHLPLLSTLAGIRVMVHGRNHTP [SCNN1D] | 2.52 ± 0.24 | 2.62 ± 0.26 |  | 
56 | SRGYRNHRSSRETRDYAPPSRGHA [RBMY1A1] | 4.63 ± 0.3 | 4.63 ± 0.4 |  | 
57 | ALQAPHSPSKTDGKELAGTMDGEG [PBXIP1] | 5.25 ± 0.25 | 5.34 ± 0.084 |  | 
58 | REVRQFQFTAWPDHGVPEHPTPFL [PTPRD] | 2.76 ± 0.24 | 2.97 ± 0.38 |  | 
59 | FKKVLDLNPGFQDATLSLKQTILD [TTC32] | 2.7 ± 0.24 | 2.86 ± 0.2 |  | 
60 | TGFTVNVAWNGPRMGDADYLAAWH [HDAC6] | 2.43 ± 0.52 | 2.18 ± 0.26 |  | 
61 | GASTFKEEPQTVPEARSRDATPPV [JUNB] | 5.34 ± 0.19 | 5.32 ± 0.15 |  | 
62 | CDECGKHFSQGSALILHQRIHSGE [ZNF24] | 5.16 ± 0.2 | 5.43 ± 0.2 |  | 
63 | HGNQSAGEDQAFGDWLLTANGSEI [SLC22A15] | 4.56 ± 0.34 | 4.67 ± 0.18 |  | 
64 | FCIPEHISPKARCLIRSLLRREPS [TRIB1] | 2.34 ± 0.47 | 2.03 ± 0.32 |  | 
65 | DRSRTVSASSTGDLPKAKTRAADL [SRPK2] | 4.94 ± 0.11 | 4.68 ± 0.24 |  | 
66 | PYFSPSASFHHKLHHKRLAKECML [CBY2] | 2.56 ± 0.11 | 2.5 ± 0.32 |  | 
67 | FAYYKLNDVRQAARSAASYMLFDP [P3H4] | 2.12 ± 0.22 | 2.14 ± 0.16 |  | 
68 | YLHNHFIGEGMTKYDYLMTLHGVV [TENT5D] | 2.83 ± 0.6 | 2.48 ± 0.62 |  | 
69 | RYEPDSKAFGVGVAYRSLGRFEQL [FSD1] | 2.48 ± 0.38 | 2.63 ± 0.33 |  | 

Row | Sequence | protein stability index [1] | protein stability index [2] | protein stability index [3] | protein stability index [4]
70 | GGGTPSLASPHTVAAVLEAVAQTA [RSAD1] | 3.46 ± 0.52 | 3.54 ± 0.3 |  | 
71 | ELGSEVDITEGDRKPDYTAYVAMI [ATF4] | 3.46 ± 0.15 | 3.61 ± 0.3 |  | 
72 | LALLVLAHSSDVLENVFSSLTDDK [GOLPH3L] | 2.85 ± 0.57 | 2.83 ± 0.49 |  | 
73 | FAASLLTVFAWLLQYARGLWLARA [C2CD2L] | 2.8 ± 0.49 | 2.54 ± 0.4 |  | 
74 | PRLCYLVKEGGSYGFSLKTVQGKK [PDZK1] | 3.02 ± 0.12 |  |  | 
75 | QSIQQAMRYLRNHCLDQVGLFRKS [DLC1] | 2.73 ± 0.091 | 2.26 ± 0.28 |  | 
76 | QVPVVDFQAELRQAFLAETPRGG [SNURF] |  |  | 3.04 ± 0.46 | 3.19 ± 0.36
77 | AFVRMKQLIEEGYVGEPLVCEVQV [GFOD1] | 2.47 ± 0.77 | 2.55 ± 0.71 |  | 
78 | SFSGKVFPFFAVWKKGSCLTLKG [TRIM15] |  |  | 3.25 ± 0.88 | 2.92 ± 0.61
79 | MSPGPLDALSSPTSVQEADETTRS [C2CD2L] | 5.35 ± 0.37 | 5.38 ± 0.15 |  | 
80 | LGHAVLPSNARGPILSRSTSTGSA [SPRY1] | 3.93 ± 0.18 | 4.15 ± 0.098 |  | 
81 | QSVKMKDKLKIDLLPDGRHAVVEV [TAF7L] | 2.87 ± 0.32 | 3.06 ± 0.36 |  | 
82 | LRLEWETQQELRKIREKEEWIKLD [IQUB] | 3.12 ± 0.62 | 3.44 ± 0.63 |  | 
83 | ELDELLKEISRKRRSIRYGREVEL [PTPRD] | 2.5 ± 0.68 | 2.96 ± 0.61 |  | 
84 | RSRIEALELLGASFANDRENYDII [FEM1B] | 3.42 ± 0.27 | 3.52 ± 0.14 |  | 
85 | DPESERALQAPHSPSKTDGKELAG [PBXIP1] | 5.48 ± 0.28 | 5.75 ± 0.25 |  | 
86 | TNRVKECLAKGTFSDVTFILDDGT [RHOBTB2] | 3.52 ± 0.16 | 3.63 ± 0.18 |  | 
87 | WKEWGFTGVQEVLSALLRATPGEY [SPAG8] | 2.06 ± 0.78 | 2.2 ± 0.53 |  | 
88 | ENAQIIYSLAEDTIQGVPLSSYIS [PCDHGA10] | 2.51 ± 0.41 | 2.82 ± 0.43 |  | 
89 | KAVNDETCKASHITSSVFPSASLG [FBXO34] | 3.66 ± 0.2 | 3.61 ± 0.18 |  | 
